Legend:
Test in all cases: SPR; BIAcore 3000; ECM proteins immobilised on CM5 chips, endostatin injected at 0, 10, 50, 200 and 400 nM; 0.02 M Tris-HCl, 0.11 M NaCl, 0.05% P-20; 25 °C; flow 20 μl/min; global fit to the 1:1 Langmuir model; triplicates
[1] = target: mouse laminin-1-nidogen-1 complex (mouse) (UniProt P19137)
mouse perlecan (mouse) = mouse perlecan (mouse) (UniProt Q05793)
[2] = target: recombinant microfibrillar component fibulin-1 (UniProt Q08879)
Sequence of UniProt Q08879 (Q08879 30-705): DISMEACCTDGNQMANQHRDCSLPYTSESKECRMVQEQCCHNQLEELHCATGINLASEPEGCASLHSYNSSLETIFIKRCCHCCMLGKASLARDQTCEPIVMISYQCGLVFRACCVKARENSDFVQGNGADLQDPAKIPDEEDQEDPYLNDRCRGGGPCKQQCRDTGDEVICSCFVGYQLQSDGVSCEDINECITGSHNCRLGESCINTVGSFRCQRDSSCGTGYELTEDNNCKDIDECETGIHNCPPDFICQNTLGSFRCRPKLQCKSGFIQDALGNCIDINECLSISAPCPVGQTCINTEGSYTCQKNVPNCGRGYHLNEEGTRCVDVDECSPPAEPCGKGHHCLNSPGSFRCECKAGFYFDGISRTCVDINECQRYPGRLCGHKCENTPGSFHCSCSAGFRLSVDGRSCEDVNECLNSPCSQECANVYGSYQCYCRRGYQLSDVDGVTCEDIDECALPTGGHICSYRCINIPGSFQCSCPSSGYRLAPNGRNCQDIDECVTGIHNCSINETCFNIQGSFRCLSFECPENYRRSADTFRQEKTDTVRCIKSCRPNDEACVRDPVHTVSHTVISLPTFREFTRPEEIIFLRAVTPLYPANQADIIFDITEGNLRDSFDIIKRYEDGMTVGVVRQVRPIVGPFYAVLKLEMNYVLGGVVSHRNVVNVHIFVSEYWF

Sequence of UniProt Q05793 (Q05793 22-3707): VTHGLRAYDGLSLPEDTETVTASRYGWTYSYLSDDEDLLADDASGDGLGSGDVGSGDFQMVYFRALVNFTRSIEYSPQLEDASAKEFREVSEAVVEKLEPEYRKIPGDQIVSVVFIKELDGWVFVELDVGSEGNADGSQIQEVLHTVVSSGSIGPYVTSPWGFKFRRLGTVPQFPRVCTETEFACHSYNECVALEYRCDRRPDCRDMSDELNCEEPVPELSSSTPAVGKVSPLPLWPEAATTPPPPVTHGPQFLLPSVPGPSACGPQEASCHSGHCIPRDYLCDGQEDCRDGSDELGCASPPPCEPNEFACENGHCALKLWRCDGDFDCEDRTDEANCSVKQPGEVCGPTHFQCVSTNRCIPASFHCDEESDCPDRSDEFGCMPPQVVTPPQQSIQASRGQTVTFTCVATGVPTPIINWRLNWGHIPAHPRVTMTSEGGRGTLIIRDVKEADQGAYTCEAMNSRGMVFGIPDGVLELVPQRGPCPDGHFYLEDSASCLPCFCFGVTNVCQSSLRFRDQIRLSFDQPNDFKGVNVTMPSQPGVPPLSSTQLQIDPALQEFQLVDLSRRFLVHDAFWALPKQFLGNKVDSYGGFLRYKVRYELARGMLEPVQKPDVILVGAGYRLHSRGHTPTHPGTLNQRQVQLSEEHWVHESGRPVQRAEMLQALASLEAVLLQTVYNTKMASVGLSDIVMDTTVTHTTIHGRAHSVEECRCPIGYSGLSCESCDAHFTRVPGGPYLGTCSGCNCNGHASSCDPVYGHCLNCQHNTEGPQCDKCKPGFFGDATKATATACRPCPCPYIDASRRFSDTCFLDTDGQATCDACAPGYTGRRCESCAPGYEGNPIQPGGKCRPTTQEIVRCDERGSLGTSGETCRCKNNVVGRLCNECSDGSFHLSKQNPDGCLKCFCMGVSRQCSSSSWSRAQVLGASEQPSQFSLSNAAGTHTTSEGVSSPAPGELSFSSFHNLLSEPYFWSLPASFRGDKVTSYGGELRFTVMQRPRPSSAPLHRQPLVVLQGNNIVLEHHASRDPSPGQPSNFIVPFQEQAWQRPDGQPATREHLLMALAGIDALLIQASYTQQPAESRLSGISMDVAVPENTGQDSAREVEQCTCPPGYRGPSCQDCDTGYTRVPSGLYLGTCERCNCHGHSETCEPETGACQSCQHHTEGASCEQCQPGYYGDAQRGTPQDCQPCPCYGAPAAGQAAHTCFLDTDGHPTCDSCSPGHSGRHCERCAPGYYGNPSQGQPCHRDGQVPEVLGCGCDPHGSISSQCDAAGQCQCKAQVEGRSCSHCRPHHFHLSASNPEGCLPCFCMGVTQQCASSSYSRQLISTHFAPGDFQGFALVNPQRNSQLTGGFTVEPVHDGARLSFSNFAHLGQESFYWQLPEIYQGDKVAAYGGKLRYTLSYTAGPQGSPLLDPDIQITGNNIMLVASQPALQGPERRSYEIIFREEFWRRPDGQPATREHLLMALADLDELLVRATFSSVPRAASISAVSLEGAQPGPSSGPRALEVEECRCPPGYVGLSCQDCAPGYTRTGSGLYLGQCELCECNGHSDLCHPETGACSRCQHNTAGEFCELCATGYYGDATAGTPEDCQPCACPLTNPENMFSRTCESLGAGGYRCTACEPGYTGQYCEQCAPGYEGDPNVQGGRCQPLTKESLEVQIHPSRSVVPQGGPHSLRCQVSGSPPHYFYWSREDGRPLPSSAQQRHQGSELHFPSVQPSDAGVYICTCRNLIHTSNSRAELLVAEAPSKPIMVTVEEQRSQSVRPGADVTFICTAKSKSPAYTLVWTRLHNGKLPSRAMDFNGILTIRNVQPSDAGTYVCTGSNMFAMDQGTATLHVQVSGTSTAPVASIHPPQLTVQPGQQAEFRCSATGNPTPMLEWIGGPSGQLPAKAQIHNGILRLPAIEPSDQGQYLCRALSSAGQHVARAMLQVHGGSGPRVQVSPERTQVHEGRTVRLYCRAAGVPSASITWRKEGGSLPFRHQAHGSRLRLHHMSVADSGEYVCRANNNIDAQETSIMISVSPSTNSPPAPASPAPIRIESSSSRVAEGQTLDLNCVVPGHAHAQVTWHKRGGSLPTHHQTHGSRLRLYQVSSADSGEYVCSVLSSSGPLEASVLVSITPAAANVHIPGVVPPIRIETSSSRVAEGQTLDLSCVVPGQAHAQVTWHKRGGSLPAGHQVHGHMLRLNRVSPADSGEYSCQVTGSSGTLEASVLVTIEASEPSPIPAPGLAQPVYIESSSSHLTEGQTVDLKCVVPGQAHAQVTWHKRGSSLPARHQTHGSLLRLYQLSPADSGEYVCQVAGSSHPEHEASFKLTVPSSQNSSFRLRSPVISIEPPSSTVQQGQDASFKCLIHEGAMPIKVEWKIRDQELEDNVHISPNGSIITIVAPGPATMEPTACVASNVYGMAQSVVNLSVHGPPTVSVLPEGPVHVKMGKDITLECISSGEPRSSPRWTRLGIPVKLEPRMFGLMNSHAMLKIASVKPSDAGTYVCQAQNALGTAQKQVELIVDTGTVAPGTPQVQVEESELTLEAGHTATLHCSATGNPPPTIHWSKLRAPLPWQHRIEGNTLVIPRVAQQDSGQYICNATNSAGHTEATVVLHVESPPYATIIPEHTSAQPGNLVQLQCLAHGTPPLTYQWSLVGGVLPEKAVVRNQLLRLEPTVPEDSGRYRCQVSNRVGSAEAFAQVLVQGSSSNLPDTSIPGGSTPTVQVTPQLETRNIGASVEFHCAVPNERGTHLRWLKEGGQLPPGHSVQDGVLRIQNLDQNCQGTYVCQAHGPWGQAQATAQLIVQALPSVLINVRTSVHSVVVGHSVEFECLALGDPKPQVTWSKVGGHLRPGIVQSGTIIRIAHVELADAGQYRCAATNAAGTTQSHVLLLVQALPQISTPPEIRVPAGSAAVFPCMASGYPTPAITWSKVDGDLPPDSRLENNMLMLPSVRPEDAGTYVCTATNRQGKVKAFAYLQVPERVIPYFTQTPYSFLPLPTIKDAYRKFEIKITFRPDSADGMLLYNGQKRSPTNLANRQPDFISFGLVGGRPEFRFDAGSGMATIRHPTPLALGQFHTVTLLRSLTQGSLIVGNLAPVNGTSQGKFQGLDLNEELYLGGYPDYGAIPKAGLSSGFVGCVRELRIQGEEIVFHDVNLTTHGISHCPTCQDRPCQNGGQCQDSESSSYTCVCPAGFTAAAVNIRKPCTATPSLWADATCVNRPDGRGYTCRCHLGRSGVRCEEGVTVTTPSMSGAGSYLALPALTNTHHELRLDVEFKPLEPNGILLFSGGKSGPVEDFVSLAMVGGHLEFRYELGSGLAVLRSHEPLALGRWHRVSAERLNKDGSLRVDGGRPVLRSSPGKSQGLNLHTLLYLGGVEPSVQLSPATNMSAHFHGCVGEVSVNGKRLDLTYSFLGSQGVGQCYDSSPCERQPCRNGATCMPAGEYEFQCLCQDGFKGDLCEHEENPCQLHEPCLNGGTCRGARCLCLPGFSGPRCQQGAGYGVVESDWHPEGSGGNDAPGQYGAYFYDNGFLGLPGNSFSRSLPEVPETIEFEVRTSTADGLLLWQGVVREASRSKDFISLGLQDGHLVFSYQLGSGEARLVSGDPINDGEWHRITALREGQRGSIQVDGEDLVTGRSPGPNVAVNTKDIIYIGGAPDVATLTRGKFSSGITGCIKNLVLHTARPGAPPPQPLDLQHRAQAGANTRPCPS

| Kd [1] [nM] | Kd (mouse perlecan (mouse)) [nM] | Kd [2] [nM] | Substance |
| --- | --- | --- | --- |
| 6.17 | 5.19 | 6.95 | p.A1381T endostatin (mutated endostatin domain, c.3601G>A) (domain or fragment) |
| 3.48 | 5.53 | 3.1 | wild type human endostatin (endostatin domain of type XVIII collagen) (domain or fragment) |
